Where no end group is shown, it is not given here.
Tests used:
[1] = target: IMPα2 lacking the IBB domain (residues 70-529) (UniProt P52293 70-529); assay: FP
[2] = target: IMPα5 lacking the IBB domain (residues 73-538) (UniProt P52294 73-538); assay: FP
Chain of IMPα5 lacking the IBB domain (residues 73-538) (P52294 73-538): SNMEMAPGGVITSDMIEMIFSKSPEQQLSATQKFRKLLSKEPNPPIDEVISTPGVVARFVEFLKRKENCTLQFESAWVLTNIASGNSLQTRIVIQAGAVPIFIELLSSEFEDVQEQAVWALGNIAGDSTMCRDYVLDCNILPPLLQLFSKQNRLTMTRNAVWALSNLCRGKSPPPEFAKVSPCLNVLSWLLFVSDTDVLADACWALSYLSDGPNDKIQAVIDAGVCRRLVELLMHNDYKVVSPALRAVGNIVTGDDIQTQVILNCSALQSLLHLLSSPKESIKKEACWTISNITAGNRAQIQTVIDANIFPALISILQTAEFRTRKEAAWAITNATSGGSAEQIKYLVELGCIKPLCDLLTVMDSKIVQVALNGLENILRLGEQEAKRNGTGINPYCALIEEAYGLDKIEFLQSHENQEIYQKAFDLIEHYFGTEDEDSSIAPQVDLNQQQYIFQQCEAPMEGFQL

B1: FITC-tagged MERS-CoV ORF4b NLS peptide (residues 19-39), wild type (peptide)
peptide: RKARKRSHSPTKKLRYVKRRF
modifications: also: FITC-tagged
B1 showed a Kd [1] of 11.3 nM and a Kd [2] of 9.6 nM.
